Data on four molecules can be found in PMC11289442 (Nature Communications, 2024).

What is called stoichiometry N is the number of molecules, sites or subunits per partner or assembly.

Experiment in all cases: SDS-PAGE without heat denaturation and immunoblot
On the technique in general: In western blotting, separated proteins are transferred to a membrane and probed.

The target of data set [1] is CFP-OsUVR8a (in transgenic Arabidopsis uvr8-6) (rice (Oryza sativa)).
Data set [2] deals with CFP-OsUVR8b (in transgenic Arabidopsis uvr8-6) (rice (Oryza sativa)).
Data set [3] concerns the molecule itself.

In data set [1], “CFP-OsUVR8a (in transgenic Arabidopsis uvr8-6) (natural protein)” yielded a stoichiometry N of 2.

As for “CFP-OsUVR8b (in transgenic Arabidopsis uvr8-6) (natural protein)”, the stoichiometry N in data set [2] stood at 2.

B1: CFP-OsUVR8a (in transgenic rice) (natural protein)
chain: MHSTGMEMEVEVAGDDEAVPEAPERSVVLISAGASHSVALLSGGVVCSWGRGEDGQLGHGDAEDRPVPTVLTAAFDDAPGGVASVVICGADHTTAYSDEELQLYSWGWGDFGRLGHGNSSDVFNPQPIQALQGVRITQIACGDSHCLAVTVAGHVHSWGRNQNGQLGLGNTEDSLLPQKIQAFEGVRVKMIAAGAEHTAAVTEDGDLYGWGWGRYGNLGLGDRDDRLIPEKVSSVNGQKMVLVACGWRHTITVSSSGSIYTYGWSKYGQLGHGDFEDHLVPHKLEALKDTTISQISGGWRHTMALAADGKLYGWGWNKFGQVGVGDNEDHCSPVQVNFPNEQKVVQVACGWRHTLALTEAKNVFSWGRGTSGQLGHGEIVDRNIPKMIDALSSDGSACKQLESSKAVPMSAKVWVSPSERYAIVPDEKAGKGIPAGNGTETHVPQGDVKRMRV
In the case of B1, the “stoichiometry N” value in data set [3] turned out to be 2.

B2: CFP-OsUVR8b (in transgenic rice) (natural protein)
chain: MDAVMSAADDAGAASGREDPPPAVVLVSAGASHSVALLAGNVLCSWGRGEDGQLGHGDAEDRLVPTVLSGFDAAAPGITSVICGADHTTAYSEDEQQVYSWGWGDFGRLGHGNSSDVFTPQPVKALQGIKIKQIACGDSHCLAVTMAGEVQSWGRNQNGQLGLGTTEDSLLPQKIQSFEGVCVKMIAAGAEHTAAVTEDGDLYGWGWGRYGNLGLGDRNDRLVPEKVSSVEGEKMVLIACGWRHTITVSSSGSLYTYGWSKYGQLGHGDFEDHLVPHKLEALKDSSISQISGGWRHTMALTSDGKLYGWGWNKFGQVGVGDTDDHCFPVQVKFPEDQKVAQVACGWRHTLAFTEKKNVFSWGRGTSGQLGHGEIVDRNKPVMIDALSPDGPGCKKLEPSTAVPFAAKVWVSPSERYAIVPDEKVPNSGEGTARGNGADANVPENDVKRMRVHS
Take B2: the “stoichiometry N” value in data set [3] is 2.
